Key:
Conditions in all cases: both partners purified
[1] = biological target: T1, Puumala virus (Gn−Gc)4 glycoprotein spike on virus-like particles (Puumala orthohantavirus, strain …, UniProt P27312); assay: cryo-EM structure
T1 construct: copies: 4 + 4

[2] = biological target: T2, Puumala virus Gc as displayed on virus-like particles (Puumala orthohantavirus); assay: cryo-EM structure
T2 chain: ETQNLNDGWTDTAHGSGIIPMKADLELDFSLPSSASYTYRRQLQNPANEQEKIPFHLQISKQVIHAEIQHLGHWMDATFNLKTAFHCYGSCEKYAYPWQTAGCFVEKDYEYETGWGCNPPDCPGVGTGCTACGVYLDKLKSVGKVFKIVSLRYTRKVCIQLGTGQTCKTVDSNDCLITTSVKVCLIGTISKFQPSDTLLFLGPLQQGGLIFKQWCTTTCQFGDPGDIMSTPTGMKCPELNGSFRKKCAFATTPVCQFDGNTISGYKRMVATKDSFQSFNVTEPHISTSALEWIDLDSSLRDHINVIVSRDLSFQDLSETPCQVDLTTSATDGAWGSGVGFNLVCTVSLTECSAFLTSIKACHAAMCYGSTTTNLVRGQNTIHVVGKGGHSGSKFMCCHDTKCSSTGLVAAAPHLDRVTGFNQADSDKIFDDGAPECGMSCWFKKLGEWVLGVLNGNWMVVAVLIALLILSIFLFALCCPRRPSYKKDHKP

[3] = biological target: Puumala virus (PUUV) Gc ectodomain, residues 659–1105 (Puumala orthohantavirus, GPC of GenBank …, UniProt Q9WJ31); assay: crystal structure

Measured: binding result

B1: Fab P-4G2 (antigen-binding fragment of mAb P-4G2) (Fab, V domains shown)
VH: QVQMKESGGGLVQPGKSLKLSCAASGFTFSDFWMSWVRQPSGKGLEWVARINTNGDTTHYTDDMKGRFTISRDNAKTTLYLEMSPLKSEDTAMYYCTRDRLGPFDYWGQGTTVTVSS
VL: DIVMTQSPAFPPVSLGDTVTITCQASQSVYKNLAWYQQKPGKSPRLLIFGMSSLADGVPSRFSASGSDKQYSLKIRGLQPEDAAIYYCQQHYIAPYTFGAGTRLEIK
notes: also called Fab 4G2
binds: [1] | [2] | [3]
